In the supplement of paper PMC12338614:
± gives the uncertainty stated by the source.

B1: library; numbered along this chain (parent)
chain: MEVVDPQQLGMFTEGELMSVGMDTFIHRIDSTEVIYQPRRKRAKLIGKYLMGDLLGEGSYGKVKEVLDSETLCRRAVKILKKKKLRRIPNGEANVKKEIQLLRRLRHKNVIQLVDVLYNEEKQKMYMVMEYCVCGMQEMLDSVPEKRFPVCQAHGYFCQLIDGLEYLHSQGIVHKDIKPGNLLLTTGGTLKISDLGVAEALHPFAADDTCRTSQGSPAFQPPEIANGLDTFSGFKVDIWSAGVTLYNITTGLYPFEGDNIYKLFENIGKGSYAIPGDCGPPLSDLLKGMLEYEPAKRFSIRQIRQHSWFRKKHPPAEAPVPIPPSPDTKDRWRSMTVVPYLEDLHGADEDEDLFDIEDDIIYTQDFTVPGQVPEEEASHNGQRRGLPKAVCMNGTEAAQLSTKSRAEGRAPNPARKACSASSKIRRLSACKQQ

Variants of: B1
Assay: STK11 functional score (HeLa growth suppression), rescaled enrichment; synonymous median = 1, nonsense median = 0 (normalised score)
Conditions: with HeLa; variant type: missense
Method: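 Deep mutational scan (TileSeq/POPCode codon randomisation) of full-length codon-optimised STK11 cDNA integrated at a Bxb1 landing pad (AAVS1) in HeLa cells. Restoring functional STK11 suppresses HeLa proliferation. Variant frequencies were measured by NGS before and after about two weeks of growth. The error-corrected enrichment log-ratio was rescaled so that synonymous median = 1 and nonsense median = 0, scores above 1 were compressed, and codon-level and three biological replicate scores were combined; error is the bootstrapped standard error. Scale: synonymous median = 1, nonsense median = 0; below 0.5 = damaging.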

STK11 functional score, by site and new letter:
C151: W 0.903 ± 0.12, H 0.883 ± 0.11, Q 1.54 ± 0.39, T 0.991 ± 0.13, N 0.808 ± 0.43, G 0.587 ± 0.11, E 0.756 ± 0.29, V 1.17 ± 0.39, I 0.722 ± 0.19, K 1.67 ± 0.32, S 1.13 ± 0.38, P 0.45 ± 0.22, R 1.07 ± 0.59, A 1.4 ± 0.25, Y 1.45 ± 0.41, M 0.331 ± 0.57, L 0.508 ± 0.091
D162: C 1.28 ± 0.15, R 1.55 ± 0.43, F 1.15 ± 0.4, L 1.04 ± 0.23, M 1.62 ± 0.2, I 1.05 ± 0.58, H 0.6 ± 0.53, A 0.819 ± 0.49, E 0.171 ± 0.15
Q152: C 1.26 ± 0.19, E 0.844 ± 0.51, V 1.19 ± 0.27, P 0.0642 ± 0.62, L 0.195 ± 0.69, S 0.733 ± 0.51
C158: L 0.856 ± 0.2, S 0.627 ± 0.15, M -0.0261 ± 0.52, I 1.51 ± 0.3, H 1.53 ± 0.32, R 1.49 ± 0.35, W 0.384 ± 0.11, A 1.37 ± 0.59, V 0.897 ± 0.2, G 0.418 ± 0.096
L160: P -0.129 ± 0.071, W 0.0949 ± 0.08, E 0.305 ± 0.092, Q 0.000621 ± 0.18, F 0.36 ± 0.21, H 0.212 ± 0.28, I 1.17 ± 0.12, A 1.07 ± 0.18, V 1.26 ± 0.14, G -0.0371 ± 0.071, S 0.508 ± 0.1, R -0.13 ± 0.095
R147: A 0.87 ± 0.19, M 1.06 ± 0.58, W 0.777 ± 0.16, F 0.668 ± 0.1, Y 1.47 ± 0.14, C 1.26 ± 0.076, D -0.33 ± 0.084, E -0.0954 ± 0.2, Q 0.506 ± 0.12, T -0.149 ± 0.087, V 0.547 ± 0.098, I 1.22 ± 0.2, S 0.855 ± 0.32, G 1.07 ± 0.086, L 0.461 ± 0.097, P 0.188 ± 0.08
P149: M 1.02 ± 0.2, V 0.694 ± 0.095, G 0.926 ± 0.23, S 0.988 ± 0.13, I 0.249 ± 0.1, R 0.413 ± 0.2, Y -0.0036 ± 0.19, D 0.598 ± 0.17, A 1.18 ± 0.12, N 1.38 ± 0.22, W 0.608 ± 0.17, L 0.561 ± 0.1, E 1.52 ± 0.19, C 0.957 ± 0.33
M139: V 0.965 ± 0.098, R 0.918 ± 0.37, C 1.29 ± 0.23, W 1.27 ± 0.78, G 0.563 ± 0.088, D -0.172 ± 0.088, E 0.269 ± 0.09, A 1.39 ± 0.58, S 0.816 ± 0.1, P 0.179 ± 0.18, L 1.2 ± 0.11, T 1.18 ± 0.53, N 0.949 ± 0.081, K 1.41 ± 0.18, I 1.01 ± 0.15, Q 1.11 ± 0.32, Y 1.53 ± 0.46
E138: S 1.26 ± 0.12, D 1.1 ± 0.21, V 0.367 ± 0.2, K 1.59 ± 0.56, Y 1.08 ± 0.077, W 1.19 ± 0.16, R -0.217 ± 0.089, N 0.232 ± 0.14, I 1.48 ± 0.37, M 1.27 ± 0.18, L 1.15 ± 0.22
F157: W 0.714 ± 0.12, L 0.19 ± 0.45, V -0.0226 ± 0.15, G -0.101 ± 0.099, M 0.503 ± 0.088
K146: H 1.49 ± 0.46, A 1.29 ± 0.39, E 1.14 ± 0.31, D 0.483 ± 0.13, N 1.16 ± 0.26, L 1.13 ± 0.13, R 1.58 ± 0.39, S 1.33 ± 0.12, W 0.507 ± 0.098, I 0.185 ± 0.12, Q 1.52 ± 0.51, V 0.152 ± 0.098, G 0.814 ± 0.28
I161: L 0.912 ± 0.23, S -0.0934 ± 0.18, P 0.918 ± 0.66, G 0.264 ± 0.092, M 1.31 ± 0.26, H -0.2 ± 0.12, R -0.0321 ± 0.14, Y 0.129 ± 0.091, W -0.296 ± 0.057, E -0.456 ± 0.065, F -0.101 ± 0.25, V 0.514 ± 0.39, N 0.158 ± 0.13, D -0.303 ± 0.097, T 1.31 ± 0.66, C 1.03 ± 0.48
A153: D -0.157 ± 0.1, L 0.0918 ± 0.087, P -0.338 ± 0.074, R 0.204 ± 0.096, F 0.0706 ± 0.09, Y -0.0988 ± 0.073, I 0.28 ± 0.27, W -0.261 ± 0.095, G 1.13 ± 0.13, E 0.243 ± 0.093, V 0.499 ± 0.1, M -0.195 ± 0.097
P144: H 0.422 ± 0.16, R 0.996 ± 0.22, K 1.63 ± 0.2, E 1.63 ± 0.2, M 1.17 ± 0.64, S 0.825 ± 0.15, I 0.87 ± 0.082, D 1.46 ± 0.29, N 1.53 ± 0.23, W 1.61 ± 0.15, Q 1.25 ± 0.34, G 1 ± 0.21, T 1.18 ± 0.2, L 0.658 ± 0.083, V 0.879 ± 0.22, A 1.08 ± 0.21
F148: P -0.111 ± 0.086, C 0.493 ± 0.087, R -0.0906 ± 0.086, V 0.674 ± 0.14, M 1.3 ± 0.082, H -0.00697 ± 0.084, N 0.0347 ± 0.095, D -0.396 ± 0.083, S -0.139 ± 0.082, T -0.101 ± 0.1, G -0.0254 ± 0.081, K -0.033 ± 0.18, Y 0.892 ± 0.11, L 0.829 ± 0.095, I 1.31 ± 0.41, E 0.147 ± 0.17, Q 0.0904 ± 0.082, A 0.105 ± 0.081, W 0.336 ± 0.079
Y156: E 1.15 ± 0.36, C 0.324 ± 0.12, T 1.13 ± 0.67, I 1.04 ± 0.24, W 0.28 ± 0.076, A 0.114 ± 0.64, Q 0.148 ± 0.081, M 1.69 ± 0.25, S 0.762 ± 0.14, D 0.293 ± 0.4, G 0.044 ± 0.076, F 1.27 ± 0.084, L 1.34 ± 0.24, V 1.06 ± 0.36, P 0.418 ± 0.19
V143: C 1.26 ± 0.22, R 1.29 ± 0.22, D 1.46 ± 0.33, P -0.133 ± 0.082, T 1.59 ± 0.19, W 0.622 ± 0.081, H 1.44 ± 0.18, A 1.34 ± 0.084, Q 0.751 ± 0.082, I 1.09 ± 0.16, N 1.68 ± 0.4, G 1.33 ± 0.077, F 1.01 ± 0.28, Y 1.52 ± 0.22, S 1.44 ± 0.36, L 1.17 ± 0.15
D141: L 1.63 ± 0.23, E 0.883 ± 0.17, S 1.21 ± 0.081, G 1.2 ± 0.36, P -0.241 ± 0.11, V 1.18 ± 0.36, M 1.22 ± 0.14, T 0.00893 ± 0.31, F 1.52 ± 0.12, A 1.01 ± 0.15, W 0.69 ± 0.12
E145: A 0.952 ± 0.13, D 1.11 ± 0.28, T 1.54 ± 0.17, C 1.41 ± 0.52, P 1.36 ± 0.4, V 0.644 ± 0.079, H 1.31 ± 0.2, Y 1.12 ± 0.08, F 0.968 ± 0.087, I 1.14 ± 0.082, G 0.981 ± 0.099, S 1.45 ± 0.096, W 1.41 ± 0.34, N 1.46 ± 0.49, L 1.16 ± 0.17, M 1.3 ± 0.13, Q 1.29 ± 0.22, R 1.21 ± 0.43
Q159: C 0.889 ± 0.35, P 0.757 ± 0.17, W 0.972 ± 0.42, Y 1.03 ± 0.46, V 0.324 ± 0.074, L 0.623 ± 0.11, E 1.25 ± 0.55, K 0.6 ± 0.18, D 1.12 ± 0.46, N 0.806 ± 0.79, R 1.03 ± 0.33, M 1.14 ± 0.096, A 1.13 ± 0.21, H 0.00983 ± 0.14, G 1.1 ± 0.15, I 0.332 ± 0.27, S 0.691 ± 0.22
V150: L 0.401 ± 0.14, W 0.631 ± 0.074, G 0.594 ± 0.14, R 1.17 ± 0.25, Q 0.265 ± 0.12, T 0.385 ± 0.47, P 0.992 ± 0.14, A 0.104 ± 0.15, S 0.347 ± 0.13, K 1.36 ± 0.28, H 1.26 ± 0.38, C 0.762 ± 0.23
G155: R 0.742 ± 0.4, A 1.27 ± 0.57
H154: Y 1.26 ± 0.12, R 0.997 ± 0.16, G 0.183 ± 0.15, V 0.314 ± 0.077, L 0.189 ± 0.086, A 1.49 ± 0.24, N 0.196 ± 0.14, P -0.204 ± 0.089, S 0.47 ± 0.11, W 0.87 ± 0.091, M 0.597 ± 0.088, F 0.39 ± 0.065, I 0.492 ± 0.09
S142: I 0.895 ± 0.26, D 1.52 ± 0.39, Q 1.69 ± 0.26, T 1.47 ± 0.18, G 1.62 ± 0.16, C 1.17 ± 0.2, E 1.55 ± 0.18, K 1.52 ± 0.34, H 1.44 ± 0.24, R 0.875 ± 0.4, N 1.16 ± 0.33, V 1.51 ± 0.23, A 1.63 ± 0.14, M 0.933 ± 0.16, L 1.16 ± 0.2, F 1.41 ± 0.43, Y 1.13 ± 0.24, P 1.34 ± 0.13, W 0.385 ± 0.093
L140: S -0.236 ± 0.08, Y -0.0286 ± 0.081, Q 1.54 ± 0.16, G -0.0512 ± 0.082, I 1.15 ± 0.12, D 0.0191 ± 0.11, A 0.543 ± 0.27, W -0.107 ± 0.081, N 0.0882 ± 0.09, C 0.555 ± 0.35, R 0.437 ± 0.11, H -0.0286 ± 0.083, V 0.909 ± 0.079, F -0.0987 ± 0.078, T 0.232 ± 0.25, K 1.06 ± 0.089, P -0.0157 ± 0.083, E -0.3 ± 0.087
